# Assay results from IntAct's records for PubMed 20595257.
# B1: Aerobic respiration control sensor protein ArcB (Escherichia coli (strain K12)), P0AEC3 (parent)
# chain: MKQIRLLAQYYVDLMMKLGLVRFSMLLALALVVLAIVVQMAVTMVLHGQVESIDVIRSIFFGLLITPWAVYFLSVVVEQLEESRQRLSRLVQKLEEMRERDLSLNVQLKDNIAQLNQEIAVREKAEAELQETFGQLKIEIKEREETQIQLEQQSSFLRSFLDASPDLVFYRNEDKEFSGCNRAMELLTGKSEKQLVHLKPADVYSPEAAAKVIETDEKVFRHNVSLTYEQWLDYPDGRKACFEIRKVPYYDRVGKRHGLMGFGRDITERKRYQDALERASRDKTTFISTISHELRTPLNGIVGLSRILLDTELTAEQEKYLKTIHVSAVTLGNIFNDIIDMDKMERRKVQLDNQPVDFTSFLADLENLSALQAQQKGLRFNLEPTLPLPHQVITDGTRLRQILWNLISNAVKFTQQGQVTVRVRYDEGDMLHFEVEDSGIGIPQDELDKIFAMYYQVKDSHGGKPATGTGIGLAVSRRLAKNMGGDITVTSEQGKGSTFTLTIHAPSVAEEVDDAFDEDDMPLPALNVLLVEDIELNVIVARSVLEKLGNSVDVAMTGKAALEMFKPGEYDLVLLDIQLPDMTGLDISRELTKRYPREDLPPLVALTANVLKDKQEYLNAGMDDVLSKPLSVPALTAMIKKFWDTQDDEESTVTTEENSKSEALLDIPMLEQYLELVGPKLITDGLAVFEKMMPGYVSVLESNLTAQDKKGIVEEGHKIKGAAGSVGLRHLQQLGQQIQSPDLPAWEDNVGEWIEEMKEEWRHDVEVLKAWVAKATKK
# partner: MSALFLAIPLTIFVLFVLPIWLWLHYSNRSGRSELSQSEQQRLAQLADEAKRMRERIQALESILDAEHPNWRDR
# B2: Phage shock protein C (Escherichia coli (strain K12)), P0AFN2 (parent)
# chain: MAGINLNKKLWRIPQQGMVRGVCAGIANYFDVPVKLVRILVVLSIFFGLALFTLVAYIILSFALDPMPDNMAFGEQLPSSSELLDEVDRELAASETRLREMERYVTSDTFTLRSRFRQL
# partner: B1 partner
# B3: Aerobic respiration control sensor protein ArcB (Escherichia coli (strain K12)), P0AEC3 (parent)
# chain: B1 chain
# partner: B2 chain
# B4: Phage shock protein C (Escherichia coli (strain K12)), P0AFN2 (parent)
# chain: B2 chain
# B5: Aerobic respiration control sensor protein ArcB (Escherichia coli (strain K12)), P0AEC3 (parent)
# chain: B1 chain
# B6: Phage shock protein B (Escherichia coli (strain K12)), P0AFM9 (parent)
# chain: B1 partner
# partner: B2 chain
# Variants of: B1
# Conditions: with pspb_ecoli pspB
row,Variant,effect of a mutation on the interaction
1,L87A;L90A;L94A;M97A,with no effect

# Variants of: B2
# Conditions: with pspb_ecoli pspB
row,Variant,effect of a mutation on the interaction
1,MAGINLNKKLWRIPQQGMVRGVCAGIANYFDVPVKLVRILVVLSIFFALALFTLVAYIILSFALDPMPDNMAFGEQLPSSSELLDEVDRELAASETRLREMERYVTSDTFTLRSRFRQL,with no effect
2,MAGINLNKKLWRIPQQGMVRGVCAGIANYFDVPVKLVRILVVLSIFFGLALFTLVAYIILSFALDPMPDNMAFAEQLPSSSELLDEVDRELAASETRLREMERYVTSDTFTLRSRFRQL,with no effect

# Variants of: B3
# Conditions: with pspc_ecoli pspC
row,Variant,effect of a mutation on the interaction
1,L87A;L90A;L94A;M97A,with no effect

# Variants of: B4
# Conditions: with pspa_ecoli pspA
row,Variant,effect of a mutation on the interaction
1,MAGINLNKKLWRIPQQGMVRGVCAGIANYFDVPVKLVRILVVLSIFFGLALFTLVAYIILSFALDPMPDNMAFGEQLPSSSELLDEVDREAAASETRAREMERYVTSDTFTLRSRFRQL,disrupting interaction strength
2,MAGINLNKKLWRIPQQGMVRGVCAGIANYFDVPVKLVRILVVLSIFFGLALFTLVAYIILSFALDPMPDNMAFAEQLPSSSELLDEVDRELAASETRLREMERYVTSDTFTLRSRFRQL,with no effect
3,MAGINLNKKLWRIPQQGMVRGVCAGIANYFDVPVKLVRILVVLSIFFALALFTLVAYIILSFALDPMPDNMAFGEQLPSSSELLDEVDRELAASETRLREMERYVTSDTFTLRSRFRQL,disrupting interaction strength

# Variants of: B5
# Conditions: with pspa_ecoli pspA
row,Variant,effect of a mutation on the interaction
1,L87A;L90A;L94A;M97A,with no effect

# Variants of: B6
# Conditions: with pspc_ecoli pspC
row,Variant,effect of a mutation on the interaction
1,MSALFLAIPATIFVAFVAPIWLWLHYSNRSGRSELSQSEQQRLAQLADEAKRMRERIQALESILDAEHPNWRDR,with no effect
